In article PMC7156504, “An in vivo platform to select and evolve aggregation-resistant proteins” (Nature Communications, 2020):

B1: IgG STT (scFv STT) (antibody, V domains shown)
VH: QVQLVQSGAEVKKPGSSVKVSCKASGGTFSTGAFTWVRQAPGQGLEWMGGIIPIFGLTNLAQNFQGRVTITADESTSTVYMELSSLRSEDTAVYYCARSSRIYDLNPSLTAYYDMDVWGQGTMVTVSS
VL: QSVLTQPPSVSAAPGQKVTISCSGSSSDIGNNYVSWYQQLPGTAPKLLIYDNNKRPSGIPDRFSGSKSGTSATLGITGLQTGDEADYYCGTWDSSLSAWVFGGGTKLTVL
B2: evolved scFvWFL variant 72 reformatted as IgG1 (antibody, V domains shown)
VH: QVQLVQSGAEVKKPGSSVKVSCKASGGTSWFGAFTWVRQAPGQGLEWMGGTIPIFGLTNLAQNFQGRVTITADESTSTVYMELSSLRSDDTAVYYCARSSRIYDLNPSLTAYYDMGVWGQGTMVTVSS
VL: QSVLTQPPSVSAAPGQKVTISCSGSSSDIGDNYVSWYQQLPGTAPKLLIYDNNKRPSGIPDRFSGSKSGTSATLGITGLQTGDEADYYCGTWDSSLSAWVFGGGTKLTVL
notes: human IgG1 heavy chain constant region of the TM-YTE IgG1 expression vector; human light chain constant region of the expression vector; IgG1, TM-YTE backbone; selected by the TPBLA from an error-prone PCR library of scFvWFL; source: HEK293/EBNA, co-transfected, purified from the culture medium (Protein A)
B3: evolved scFvWFL variant 128 reformatted as IgG1 (antibody, V domains shown)
VH: QVQLVQSGAEVKKPGSSVKVSCKASGGTFWFGAFTWVRQAPGQGLEWMGGIIPIFGLTNLAQNFQGRVTITADESTSTVYMELSSLRSEDTAVYYCARSSRIYDLNPSLTADYDMDVWGQGTMVTVSS
VL: QSVLTQPPSVSAAPGQEVTISCSGSSSDIGNNYVSWYQQPPGAAPKLLIYDNNKRPSGIPDRFSGSKSGTSATLGITGLQTGDEADYYCGTWDSSLSAWVFGGGTKLTVL
notes: retains W35, F36 and L64; human IgG1 heavy chain constant region of the TM-YTE IgG1 expression vector; human light chain constant region of the expression vector; IgG1, TM-YTE backbone; retains the original WFL residues (W35, F36 and L64); source: HEK293/EBNA, co-transfected, purified from the culture medium (Protein A)
B4: evolved scFvWFL variant 11 reformatted as IgG1 (antibody, V domains shown)
VH: QVQLVRSGAEVKKPGSSVKVSCKASGGTFWFGAFTWVRQAPGQGLEWMGGIIPIFGLTNLAQNFQGRVTITADESTSTVYMELSSLRSEDTAVYYCARSSRIYDLNPSLAAYYDMDVWGQGTMVTVSS
VL: QSVLTQPPSVSAAPGQKVTIPCSGSSSDIGNNYVSWYQQLPGTAPKLLIYDNNKRPSGIPDRFSGSKSGTSATLGVTGLQTGDEADYYCGTWDSSLSAWVFGGGTKLTVL
notes: as for B2
B5: evolved scFvWFL variant 59 reformatted as IgG1 (antibody, V domains shown)
VH: QVQLVQSGAEVKKPGSSVKVSCKASGGTFRFGAFTWARQAPGQGLEWMGGIIPIFGLTNLAQNFQGRATITADESTSTVYMELSSLRSEDTAVYYCARSSRIYDLNPSLTAYYDMDVWGQGTMVTVSS
VL: QSVLTQPPSVSAAPGQKVTISCSGSSSDIGNNYVSWYQQLPGTAPKLLTYDNNKRPSGIPGRFSGSKSGTSATLGITGLQTGDEADYYCGTWDSSLSAWVFGGGTKLTVL
notes: as for B2
B6: DyLight650-labelled IgGWFL (antibody, V domains shown)
VH: QVQLVQSGAEVKKPGSSVKVSCKASGGTFWFGAFTWVRQAPGQGLEWMGGIIPIFGLTNLAQNFQGRVTITADESTSTVYMELSSLRSEDTAVYYCARSSRIYDLNPSLTAYYDMDVWGQGTMVTVSS
VL: QSVLTQPPSVSAAPGQKVTISCSGSSSDIGNNYVSWYQQLPGTAPKLLIYDNNKRPSGIPDRFSGSKSGTSATLGITGLQTGDEADYYCGTWDSSLSAWVFGGGTKLTVL
notes: as the VH of m1; human IgG1 heavy chain constant region of the TM-YTE IgG1 expression vector; as the VL of m1; human light chain constant region of the expression vector; same protein as m1; also called labelled MEDI1912; source: HEK293/EBNA, co-transfected, purified from the culture medium (Protein A); labelled with DyLight650
B7: evolved scFvWFL variant 176 reformatted as IgG1 (antibody, V domains shown)
VH: QVQLVRSGAEVKKPGSSVKVSCKASGGTFWFGAFTWVRQAPGQGLEWMGGIIPIFGLTNLAQNFQGRVTITADESTSTVYMELSSLRSEDTAVYYCARSSRIYDLNPSLTAYYDMDVWGQGTMVTVSS
VL: QSVLTQPPSVSAAPGQKVTISCSGSSSDIGNNYVSWYQQLPGTAPKLLIYDNNKRPSGIPDRFSGSKSGTSATLGITGLQTGDEADYYCGTWDSSLSAWVFGGGTKLTVL
notes: as for B2
B8: MEDI578 (the parent antibody prior to affinity maturation into MEDI1912) (antibody, V domains shown)
VH: QVQLVQSGAEVKKPGSSVKVSCKASGGTFSTYGISWVRQAPGQGLEWMGGIIPIFDTGNSAQSFQGRVTITADESTSTAYMELSSLRSEDTAVYYCARSSRIYDLNPSLTAYYDMDVWGQGTMVTVSS
VL: QSVLTQPPSVSAAPGQKVTISCSGSSSNIGNNYVSWYQQLPGTAPKLLIYDNNKRPSGIPDRFSGSKSGTSATLGITGLQTGDEADYYCGTWDSSLSAWVFGGGTKLTVL
notes: VH of MEDI578; VL of MEDI578; The entry is printed as 5J7Z in the methods; also called IgG_(MEDI578)
B9: evolved scFvWFL variant 16 reformatted as IgG1 (antibody, V domains shown)
VH: QVQLVQSGAEVKKPGSSVKVSCKASGGTFWSGAFTWVRQAPGQGLEWMGGIIPISGLTNLAQNFQGRVTITADESTSTAYMELSSLRSEDTAVYYCARSSRIYDLNPSLTAYYDMDVWGQGTMVTVSS
VL: QSVLTQPPSVSAAPGQKVTISCSGSSSDIGNNYVSWYQQLPGTAPKLLIYDNNKRPSGIPDRFSGSKSGTSATLGITGLQTGDEADYYCGTWDSSLSAWVIGGGTKLTVL
notes: as for B2
B10: evolved scFvWFL variant 37 reformatted as IgG1 (antibody, V domains shown)
VH: QVQLVPSGAEVKKPGSSVKVSCKASGGTFWFGAFTWVRQAPGQGLEWMGGIIPTFGLTNLAQNFQGRVTITADESTSTVYMELSSLRSEDTAVYYCARSSRIYDLNPSLTAYYDMDVWGQGTMVTVSS
VL: QSVLTQPPSVSAAPGQKVTISCSGPSSDIGNNYVSWYQQLPGTAPKLLIYDNNKRPSGIPDRFSGSKSGTSATLGITGLQTGDEADYYCGTWDSSLSAWVFGGGTKLTVL
notes: as for B3
B11: evolved scFvWFL variant 139 reformatted as IgG1 (antibody, V domains shown)
VH: QVQLVQSGAEVKKPGSSVKVSCKAGGGTFWSGAFTWVRQAPGQGLEWMGGIIPIFGLTNLAQNFQGRVTITADESTSTVYMELSSLRSEDTAVYYCARSSRTYDLNPSLTAYYDMDVWGQGTMVTVSS
VL: QSVLTQPPSVSAAPGQKVTISCSGSSSDIGNNYVSWYQQLPGTAPKLLIYDNNKRPSGIPDRFSGSKSGTTATLGITGLQTGDEADYYCGTWDSSLSAWVFGGGTKLTVL
notes: human IgG1 heavy chain constant region of the TM-YTE IgG1 expression vector; human light chain constant region of the expression vector; IgG1, TM-YTE backbone; the best performing variant of the screen; source: HEK293/EBNA, co-transfected, purified from the culture medium (Protein A)
B12: evolved scFvWFL variant 130 reformatted as IgG1 (antibody, V domains shown)
VH: QVQLVQSGAEVKKPGSSVKVSCKASGGAFWFGAFTWVRQAPGQGLEWMGGITPIFGHTNLAQNFQGRVTITADESTSTVYMELSSLRSEDTAVYYCARSSRIYDLNPSLTAYYDMDVWGQGTMVTVSS
VL: QSVLTQPPSVSAAPGQKVTISCSGSSSDIGNNYVSWYQQLPGTAPKLLIYDNNKRPSGIPDRFSGSKSGTSATLGITGLQTGDEADYYCGTWDSSLSAWVFGGGTKLTVL
notes: as for B2
B13: evolved scFvWFL variant 126 reformatted as IgG1 (antibody, V domains shown)
VH: QVQLVQSGAEVKKPGSSVKVSCKASGGTFWFGAFTWVRQAPGQGLEWMGGFIPISGLTNLAQNFQGRVTITADESTSTVYMELSSLRSEDTAVYYCARSSRIYDLNPSLTAYYDMDVWGQGTMVTVSS
VL: QSVLTQPPSVSAAPGQKVTISCSGSSSDIGNNYVSWYQQLPGTAPKLLIYDNNKRPSGIPDRFSGSKSGTSATLGITGLQTGDEADYYCGTWDSSLSAWVFGGGTKLTVL
notes: as for B2

What follows are binders tested against T1, biotinylated nerve growth factor (NGF) (Homo sapiens, UniProt P01138, biotin (biotinylated in-house, sites not stated)) (assay: not given). Settings: not given.
T1 sequence (P01138 122-241): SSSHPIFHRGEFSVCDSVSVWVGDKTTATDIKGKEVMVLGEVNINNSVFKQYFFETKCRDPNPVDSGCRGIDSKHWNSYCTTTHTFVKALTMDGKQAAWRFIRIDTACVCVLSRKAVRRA

Binding result, binds:
B1

What follows are binders tested against T1, biotinylated nerve growth factor (NGF) (assay: AlphaScreen or HTRF; epitope competition assay: biotinylated NGF (detected by streptavidin Europium cryptate) and DyLight650-labelled IgGWFL with increasing concentrations of test IgG; relative affinity). Settings: both partners purified.

Binding result, binds:
B2, B3, B4, B5, B6, B7, B8, B9, B10, B11, B12, B13
